Assay results: publication PMC10045213

Biological target: p75 NeuroTrophin Receptor (UniProt P08138)
Assay: SPR; TrkA immobilized at 8860 RU, p75NTR immobilized at 4320 RU; 1.7-15 nM hNGF R100W flowed over; curves blank subtracted

Chain of UniProt P08138 (P08138 29-427): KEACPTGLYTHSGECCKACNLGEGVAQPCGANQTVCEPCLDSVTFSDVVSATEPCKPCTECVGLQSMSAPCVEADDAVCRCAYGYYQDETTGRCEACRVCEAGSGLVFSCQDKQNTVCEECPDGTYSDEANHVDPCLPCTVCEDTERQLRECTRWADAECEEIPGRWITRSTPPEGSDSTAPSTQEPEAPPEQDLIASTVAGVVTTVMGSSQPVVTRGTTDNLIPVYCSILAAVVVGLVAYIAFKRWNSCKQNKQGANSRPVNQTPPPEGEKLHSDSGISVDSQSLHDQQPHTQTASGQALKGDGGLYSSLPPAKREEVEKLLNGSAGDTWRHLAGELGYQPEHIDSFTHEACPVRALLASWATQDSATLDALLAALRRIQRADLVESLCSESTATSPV

- Kd: 100 nM
Substance: human NGF R100W (from UniProt P01138 122-241) (ligand)
